To fix the notation:
B1: Kinesin-like protein KIF24 (Homo sapiens), Q5T7B8 (parent)
chain: MASWLYECLCEAELAQYYSHFTALGLQKIDELAKITMKDYSKLGVHDMNDRKRLFQLIKIIKIMQEEDKAVSIPERHLQTSSLRIKSQELRSGPRRQLNFDSPADNKDRNASNDGFEMCSLSDFSANEQKSTYLKVLEHMLPDDSQYHTKTGILNATAGDSYVQTEISTSLFSPNYLSAILGDCDIPIIQRISHVSGYNYGIPHSCIRQNTSEKQNPWTEMEKIRVCVRKRPLGMREVRRGEINIITVEDKETLLVHEKKEAVDLTQYILQHVFYFDEVFGEACTNQDVYMKTTHPLIQHIFNGGNATCFAYGQTGAGKTYTMIGTHENPGLYALAAKDIFRQLEVSQPRKHLFVWISFYEIYCGQLYDLLNRRKRLFAREDSKHMVQIVGLQELQVDSVELLLEVILKGSKERSTGATGVNADSSRSHAVIQIQIKDSAKRTFGRISFIDLAGSERAADARDSDRQTKMEGAEINQSLLALKECIRALDQEHTHTPFRQSKLTQVLKDSFIGNAKTCMIANISPSHVATEHTLNTLRYADRVKELKKGIKCCTSVTSRNRTSGNSSPKRIQSSPGALSEDKCSPKKVKLGFQQSLTVAAPGSTRGKVHPLTSHPPNIPFTSAPKVSGKRGGSRGSPSQEWVIHASPVKGTVRSGHVAKKKPEESAPLCSEKNRMGNKTVLGWESRASGPGEGLVRGKLSTKCKKVQTVQPVQKQLVSRVELSFGNAHHRAEYSQDSQRGTPARPASEAWTNIPPHQKEREEHLRFYHQQFQQPPLLQQKLKYQPLKRSLRQYRPPEGQLTNETPPLFHSYSENHDGAQVEELDDSDFSEDSFSHISSQRATKQRNTLENSEDSFFLHQTWGQGPEKQVAERQQSLFSSPRTGDKKDLTKSWVDSRDPINHRRAALDHSCSPSKGPVDWSRENSTSSGPSPRDSLAEKPYCSQVDFIYRQERGGGSSFDLRKDASQSEVSGENEGNLPSPEEDGFTISLSHVAVPGSPDQRDTVTTPLREVSADGPIQVTSTVKNGHAVPGEDPRGQLGTHAEYASGLMSPLTMSLLENPDNEGSPPSEQLVQDGATHSLVAESTGGPVVSHTVPSGDQEAALPVSSATRHLWLSSSPPDNKPGGDLPALSPSPIRQHPADKLPSREADLGEACQSRETVLFSHEHMGSEQYDADAEETGLDGSWGFPGKPFTTIHMGVPHSGPTLTPRTGSSDVADQLWAQERKHPTRLGWQEFGLSTDPIKLPCNSENVTWLKPRPISRCLARPSSPLVPSCSPKTAGTLRQPTLEQAQQVVIRAHQEQLDEMAELGFKEETLMSQLASNDFEDFVTQLDEIMVLKSKCIQSLRSQLQLYLTCHGPTAAPEGTVPS
partner: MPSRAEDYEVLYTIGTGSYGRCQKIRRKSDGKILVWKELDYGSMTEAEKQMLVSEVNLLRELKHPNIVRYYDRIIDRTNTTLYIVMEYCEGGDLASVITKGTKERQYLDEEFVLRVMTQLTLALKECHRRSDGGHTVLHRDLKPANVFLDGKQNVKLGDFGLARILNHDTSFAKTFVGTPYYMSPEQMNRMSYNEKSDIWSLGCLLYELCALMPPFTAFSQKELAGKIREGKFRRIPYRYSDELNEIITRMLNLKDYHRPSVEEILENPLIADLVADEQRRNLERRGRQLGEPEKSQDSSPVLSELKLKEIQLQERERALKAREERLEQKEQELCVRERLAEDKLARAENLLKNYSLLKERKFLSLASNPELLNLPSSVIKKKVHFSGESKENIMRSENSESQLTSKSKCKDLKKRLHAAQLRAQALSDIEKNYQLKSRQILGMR

In this experiment the parent is B1. The settings on record: with nek2_human NEK2, P51955.
Consider T621A;S622A, for which the “effect of a mutation on the interaction” value is recorded as “decreasing interaction”.

Source of the values: IntAct's records for PubMed 26290419.
